# Patent publication US7208171B2, “Injectable and bioadhesive polymeric hydrogels as well as related methods of enzymatic preparation” (Northwestern University, priority 2002, dated 2007)
# Non-standard residues stand in square brackets, D forms with d. No end group written: not given here. Dopa = N[C@@H](Cc1ccc(O)c(O)c1)C(=O)O
# T1: guinea pig liver transglutaminase (UniProt P08587)
# T1 construct: Transglutaminase from guinea pig liver, Boc-L-Lys(Boc)-OH, and N-Boc-L-DOPA dicyclohexylammonium salt was purchased from Sigma Chemical Company; purchased Sigma Chemical Company (St. Louis, Mo.); host or cells: guinea pig liver (tissue-derived enzyme)
# T1 sequence (P08587 1-690): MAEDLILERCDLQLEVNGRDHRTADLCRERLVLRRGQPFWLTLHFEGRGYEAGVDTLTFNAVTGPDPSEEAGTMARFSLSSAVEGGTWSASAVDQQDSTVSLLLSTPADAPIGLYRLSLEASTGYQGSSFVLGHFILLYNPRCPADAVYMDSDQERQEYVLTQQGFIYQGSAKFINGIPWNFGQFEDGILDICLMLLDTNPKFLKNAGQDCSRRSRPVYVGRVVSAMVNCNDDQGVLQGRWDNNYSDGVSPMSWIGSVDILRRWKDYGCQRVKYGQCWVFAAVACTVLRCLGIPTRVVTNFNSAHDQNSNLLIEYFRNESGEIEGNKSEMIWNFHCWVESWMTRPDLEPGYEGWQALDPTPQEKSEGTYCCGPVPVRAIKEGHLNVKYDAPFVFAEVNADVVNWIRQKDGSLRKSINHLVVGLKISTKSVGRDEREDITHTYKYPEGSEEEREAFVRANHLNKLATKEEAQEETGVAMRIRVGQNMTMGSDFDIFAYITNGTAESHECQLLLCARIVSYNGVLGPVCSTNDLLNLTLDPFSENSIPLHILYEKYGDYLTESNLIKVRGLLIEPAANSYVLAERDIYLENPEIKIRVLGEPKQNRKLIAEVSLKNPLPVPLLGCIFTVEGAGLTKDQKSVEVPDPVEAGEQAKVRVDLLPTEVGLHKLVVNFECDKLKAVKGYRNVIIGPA
# T2: guinea pig liver transglutaminase (guinea pig, UniProt P08587 2-690)
# T2 sequence (looked up): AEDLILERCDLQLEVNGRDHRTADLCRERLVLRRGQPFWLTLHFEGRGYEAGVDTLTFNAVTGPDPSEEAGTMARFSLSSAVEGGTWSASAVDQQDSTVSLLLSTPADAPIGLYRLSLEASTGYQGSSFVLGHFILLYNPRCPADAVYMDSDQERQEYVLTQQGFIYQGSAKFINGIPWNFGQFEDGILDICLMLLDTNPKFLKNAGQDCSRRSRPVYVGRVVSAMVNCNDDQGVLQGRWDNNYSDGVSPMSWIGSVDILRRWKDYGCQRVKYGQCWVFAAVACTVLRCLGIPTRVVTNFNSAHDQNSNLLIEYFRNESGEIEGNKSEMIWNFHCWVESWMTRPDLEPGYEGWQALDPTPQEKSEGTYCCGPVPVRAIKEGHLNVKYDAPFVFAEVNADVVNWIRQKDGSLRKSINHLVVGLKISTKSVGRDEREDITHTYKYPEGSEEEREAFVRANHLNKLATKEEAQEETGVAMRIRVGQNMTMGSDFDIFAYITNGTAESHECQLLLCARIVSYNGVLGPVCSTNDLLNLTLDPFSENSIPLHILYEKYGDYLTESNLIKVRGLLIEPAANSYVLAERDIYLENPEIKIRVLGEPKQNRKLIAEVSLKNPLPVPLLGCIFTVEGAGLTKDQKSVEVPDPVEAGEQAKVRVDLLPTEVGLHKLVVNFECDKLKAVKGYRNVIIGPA
# T3: Ac-KG-NH2
# T3 chain: KG
# T4: Ac-LKG-NH2
# T4 chain: LKG
# T5: NH2-GQLKHLEQQEG-NH2
# T5 chain: GQLKHLEQQEG
# T6: Ac-GQQQLG-NH2
# T6 chain: GQQQLG
# T7: DOPA-FKG-NH2
# T7 chain: XFKG
# T8: DOPA-LKG-NH2
# T8 chain: XLKG
# T9: FKG-NH2
# T9 chain: FKG
# T10: DOPA-GQQQLG-NH2
# T10 chain: XGQQQLG
# T11: Ac-FKG-NH2
# T11 chain: FKG
# T12: LKG-NH2
# T12 chain: LKG
# B1: guinea pig liver transglutaminase (protein)
# chain: AEDLILERCDLQLEVNGRDHRTADLCRERLVLRRGQPFWLTLHFEGRGYEAGVDTLTFNAVTGPDPSEEAGTMARFSLSSAVEGGTWSASAVDQQDSTVSLLLSTPADAPIGLYRLSLEASTGYQGSSFVLGHFILLYNPRCPADAVYMDSDQERQEYVLTQQGFIYQGSAKFINGIPWNFGQFEDGILDICLMLLDTNPKFLKNAGQDCSRRSRPVYVGRVVSAMVNCNDDQGVLQGRWDNNYSDGVSPMSWIGSVDILRRWKDYGCQRVKYGQCWVFAAVACTVLRCLGIPTRVVTNFNSAHDQNSNLLIEYFRNESGEIEGNKSEMIWNFHCWVESWMTRPDLEPGYEGWQALDPTPQEKSEGTYCCGPVPVRAIKEGHLNVKYDAPFVFAEVNADVVNWIRQKDGSLRKSINHLVVGLKISTKSVGRDEREDITHTYKYPEGSEEEREAFVRANHLNKLATKEEAQEETGVAMRIRVGQNMTMGSDFDIFAYITNGTAESHECQLLLCARIVSYNGVLGPVCSTNDLLNLTLDPFSENSIPLHILYEKYGDYLTESNLIKVRGLLIEPAANSYVLAERDIYLENPEIKIRVLGEPKQNRKLIAEVSLKNPLPVPLLGCIFTVEGAGLTKDQKSVEVPDPVEAGEQAKVRVDLLPTEVGLHKLVVNFECDKLKAVKGYRNVIIGPA
# Columns and labels:
# [1] = target: T1, guinea pig liver transglutaminase; assay: Substrate specificity: TGase-catalysed cross-linking of peptide with dansyl labeled substrate, RP-HPLC; format: biochemical; conditions: peptide concentration 0.05–50 mM, enzyme 0.05 U/ml, reaction time 30 min
# Protocol: For acyl donor attention was focused on peptides containing two to about 5 contiguous glutaminyl (e.g., Gln residues), whereas for acyl acceptor a variety of residues were placed near or adjacent Lys. The peptides were assayed as TGase substrates by monitoring the rate of cross-linking reaction with a known dansyl labeled substrate. The use of fluorescently labeled compounds and RP-HPLC analysis with the aid of LC-ESI/MS, allowed for identification of products and comparison of the kinetic constants of the candidate peptides. The specificity (kcat/Km, app) values determined under identical experimental conditions reflect the relative specificity of the enzyme toward the substrates; peptides with higher specificities are better substrates for TGase enzyme, indicating the enzyme-catalyzed cross-linking reaction of that peptide will proceed more rapidly.
# Substrate Specificity. […] All reaction products were characterized by LC-ESI/MS (Table 3) and quantitatively analyzed by RP-HPLC. Kinetic constants (Table 4a–b and FIG. 6) were calculated from two methods: fit of the initial rates versus substrate concentrations to the Michaelis-Menten equation using the SigmaPlot® 2000 program with Enzyme Kinetics Module (SPSS Inc., IL); and graphing of the kinetic data using the direct linear plot. […]
# [2] = target: T2, guinea pig liver transglutaminase; assay: cell-based or functional assay
# Ac-KG-NH2 = target: T3, Ac-KG-NH2
# Ac-LKG-NH2 = target: T4, Ac-LKG-NH2
# NH2-GQLKHLEQQEG-NH2 = target: T5, NH2-GQLKHLEQQEG-NH2
# Ac-GQQQLG-NH2 = target: T6, Ac-GQQQLG-NH2
# DOPA-FKG-NH2 = target: T7, DOPA-FKG-NH2
# DOPA-LKG-NH2 = target: T8, DOPA-LKG-NH2
# FKG-NH2 = target: T9, FKG-NH2
# DOPA-GQQQLG-NH2 = target: T10, DOPA-GQQQLG-NH2
# Ac-FKG-NH2 = target: T11, Ac-FKG-NH2
# LKG-NH2 = target: T12, LKG-NH2
molecule,measurement,setting,value
DOPA-Lys-Gly-NH2 ([Dopa]-Lys-Gly-NH2; N-terminus assumed; SMILES NCCCC[C@H](NC(=O)[C@@H](N)Cc1ccc(O)c(O)c1)C(=O)NCC(N)=O) [Peptide 4],cross-linking product detection,[1],No cross-linking product was detected
DOPA-FKG-NH2 (peptide),fold increase in specificity against Ac-FKG-NH2,[2],2.4 fold
same,fold increase in specificity against Ac-KG-NH2,[2],100 fold
DOPA-LKG-NH2 (peptide),fold increase in specificity against Ac-KG-NH2,[2],100 fold
same,fold increase in specificity against Ac-LKG-NH2,[2],2.4 fold
B1,"Km, app",Ac-KG-NH2,872 µM
same,"Vmax, app",Ac-KG-NH2,1.02 µM/min
same,kcat,Ac-KG-NH2,0.153 s⁻¹
same,"kcat/Km, app",Ac-KG-NH2,177 M⁻¹ s⁻¹
same,"Km, app",Ac-LKG-NH2,56 µM
same,"Vmax, app",Ac-LKG-NH2,1.5 µM/min
same,kcat,Ac-LKG-NH2,0.45 s⁻¹
same,"kcat/Km, app",Ac-LKG-NH2,8030 M⁻¹ s⁻¹
same,"Km, app",NH2-GQLKHLEQQEG-NH2,593 µM
same,"Vmax, app",NH2-GQLKHLEQQEG-NH2,12.5 mM/min
same,kcat,NH2-GQLKHLEQQEG-NH2,0.468 s⁻¹
same,"kcat/Km, app",NH2-GQLKHLEQQEG-NH2,788 M⁻¹ s⁻¹
same,substrate properties (acyl donor),NH2-GQLKHLEQQEG-NH2,all three designed Gln peptides exhibiting good substrate properties
same,"Km, app",Ac-GQQQLG-NH2,119 µM
same,"Vmax, app",Ac-GQQQLG-NH2,1.8 mM/min
same,kcat,Ac-GQQQLG-NH2,0.0667 s⁻¹
same,"kcat/Km, app",Ac-GQQQLG-NH2,568 M⁻¹ s⁻¹
same,substrate properties (acyl donor),Ac-GQQQLG-NH2,all three designed Gln peptides exhibiting good substrate properties
same,"Km, app",DOPA-FKG-NH2,17 µM
same,"Vmax, app",DOPA-FKG-NH2,1.25 µM/min
same,kcat,DOPA-FKG-NH2,0.375 s⁻¹
same,"kcat/Km, app",DOPA-FKG-NH2,22100 M⁻¹ s⁻¹
same,"Km, app",DOPA-LKG-NH2,19.5 µM
same,"Vmax, app",DOPA-LKG-NH2,1.28 µM/min
same,kcat,DOPA-LKG-NH2,0.383 s⁻¹
same,"kcat/Km, app",DOPA-LKG-NH2,19600 M⁻¹ s⁻¹
same,"Km, app",FKG-NH2,498 µM
same,"Vmax, app",FKG-NH2,1.7 µM/min
same,kcat,FKG-NH2,0.51 s⁻¹
same,"kcat/Km, app",FKG-NH2,1030 M⁻¹ s⁻¹
same,"Km, app",DOPA-GQQQLG-NH2,367 µM
same,"Vmax, app",DOPA-GQQQLG-NH2,7.8 mM/min
same,kcat,DOPA-GQQQLG-NH2,0.293 s⁻¹
same,"kcat/Km, app",DOPA-GQQQLG-NH2,798 M⁻¹ s⁻¹
same,substrate properties (acyl donor),DOPA-GQQQLG-NH2,all three designed Gln peptides exhibiting good substrate properties
same,"Km, app",Ac-FKG-NH2,46.9 µM
same,"Vmax, app",Ac-FKG-NH2,1.46 µM/min
same,kcat,Ac-FKG-NH2,0.438 s⁻¹
same,"kcat/Km, app",Ac-FKG-NH2,9330 M⁻¹ s⁻¹
same,"Km, app",LKG-NH2,609 µM
same,"Vmax, app",LKG-NH2,1.64 µM/min
same,kcat,LKG-NH2,0.492 s⁻¹
same,"kcat/Km, app",LKG-NH2,807 M⁻¹ s⁻¹
Phe-Lys-Gly-NH2 [FKG-NH2],fold increase in specificity against Ac-KG-NH2,[2],~5 fold
Leu-Lys-Gly-NH2 [LKG-NH2],fold increase in specificity against Ac-KG-NH2,[2],~5 fold
Ac-Phe-Lys-Gly-NH2 [Ac-FKG-NH2],fold increase in specificity against FKG-NH2,[2],~10 fold
Ac-Leu-Lys-Gly-NH2 [Ac-LKG-NH2],fold increase in specificity against LKG-NH2,[2],~10 fold
